In patent publication US20190276496A1 (FUNDACI N PARA LA INVESTIGACI N M DICA APLICADA, published 2019):
Where no end group is shown, it is not given here. [ ]: non-standard residue; d: D form.

How the values were obtained:
[1] = target: human FOXP3 tagged with 6 histidines at the C terminus (human) (UniProt Q9BZS1); assay: SPR (ProteOn XPR36), FOXP3-6His immobilized on GLM chip, peptide 1-20 µM injected; ratio to p60 (SEQ ID NO: 1)
[2] = target: human FOXP3 tagged with 6 histidines at the C terminus (human) (UniProt Q9BZS1); assay: AlphaScreen competition, His-tagged FOXP3 (400 nM) / GST-tagged FOXP3 (40 nM, competitor); peptide at 100 µM
[3] = target: T1, Foxp3 in murine CD25+ Treg cells (mouse, UniProt Q99JB6 1-417); assay: cell-based or functional assay
T1 sequence (looked up): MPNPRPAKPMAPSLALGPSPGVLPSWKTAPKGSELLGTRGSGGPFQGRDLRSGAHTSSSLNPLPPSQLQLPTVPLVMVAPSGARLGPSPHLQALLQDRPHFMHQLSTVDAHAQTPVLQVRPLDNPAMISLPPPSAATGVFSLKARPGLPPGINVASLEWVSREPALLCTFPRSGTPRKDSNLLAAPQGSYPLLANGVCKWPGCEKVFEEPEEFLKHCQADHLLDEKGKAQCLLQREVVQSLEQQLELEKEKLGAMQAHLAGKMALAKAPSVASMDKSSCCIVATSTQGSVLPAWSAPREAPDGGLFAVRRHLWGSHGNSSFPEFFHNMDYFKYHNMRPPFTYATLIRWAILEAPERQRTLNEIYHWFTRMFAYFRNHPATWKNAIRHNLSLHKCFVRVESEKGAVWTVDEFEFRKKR

[4] = target: GST-FOXP3 (GST fused to the isoform A from human FOXP3 gene) (human) [GST: P08515]; assay: AlphaScreen competition, GST-FOXP3 (100 nM) / His-Runx1 (46 nM, competitor); peptide at 100 µM
Sequence of GST-FOXP3 (GST fused to the isoform A from human FOXP3 gene) (human) [GST: P08515] (P08515 1-218, tags or fused parts left off): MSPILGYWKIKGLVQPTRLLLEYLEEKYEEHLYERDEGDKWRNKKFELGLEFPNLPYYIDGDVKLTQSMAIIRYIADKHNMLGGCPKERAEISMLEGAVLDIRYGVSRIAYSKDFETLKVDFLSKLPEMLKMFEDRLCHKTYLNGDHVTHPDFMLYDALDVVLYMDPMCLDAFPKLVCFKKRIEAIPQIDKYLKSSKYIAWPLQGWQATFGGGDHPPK

[5] = target: human FOXP3 tagged with 6 histidines at the C terminus (human) (UniProt Q9BZS1); assay: AlphaScreen competition, His-tagged FOXP3 (400 nM) / GST-tagged FOXP3 (40 nM, competitor); peptide at 20 µM
[6] = target: GST-FOXP3 (GST fused to the isoform A from human FOXP3 gene) (human) [GST: P08515]; assay: AlphaScreen competition, GST-FOXP3 (100 nM) / His-Runx1 (46 nM, competitor); peptide at 2.5 µM
[7] = target: T1, Foxp3 in murine CD25+ Treg cells; assay: cell-based or functional assay; remark: listed apart in the source

Sequence of human FOXP3 tagged with 6 histidines at the C terminus (human) (Q9BZS1 other isoform, or with tags, fused parts or gaps): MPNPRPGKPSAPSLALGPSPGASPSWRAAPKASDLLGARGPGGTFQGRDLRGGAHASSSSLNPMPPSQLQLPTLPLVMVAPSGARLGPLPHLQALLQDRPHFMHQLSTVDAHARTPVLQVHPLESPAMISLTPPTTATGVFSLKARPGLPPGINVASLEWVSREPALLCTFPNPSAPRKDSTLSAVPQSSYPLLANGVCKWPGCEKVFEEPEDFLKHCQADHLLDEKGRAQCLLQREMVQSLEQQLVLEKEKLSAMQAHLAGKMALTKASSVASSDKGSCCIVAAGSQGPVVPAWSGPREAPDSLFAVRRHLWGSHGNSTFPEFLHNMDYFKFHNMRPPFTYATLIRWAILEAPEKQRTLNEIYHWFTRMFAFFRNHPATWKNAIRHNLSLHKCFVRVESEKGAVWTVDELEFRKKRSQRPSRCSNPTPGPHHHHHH

Binder | Ratio binding Peptide/p60 (fold change) [1] [fold change] | Dimerization inhibition % inhibition [2] [%] | Treg inhibition-% inhibition (100 µM) [3] [%] | Foxp3-Runx1 Inhibition % inhibition [4] [%] | Dimerization inhibition % inhibition [5] [%] | Foxp3-Runx1 Inhibition % inhibition [6] [%] | IC50 (µM) of inhibition of Treg activity, in vitro Treg suppression assay (murine Tconv + Treg, anti-CD3, [3H]-thymidine) [7] [µM]
RAFQSFRKMWPFFAM [peptide of SEQ ID NO: 5] | 4.1 | 74.3 | 347 | 76 |  |  | 
RDFQSFRKMWAFFAM [peptide of SEQ ID NO: 30] | 1.1 | 81.3 | 170 | 73.9 |  |  | 
H-[dR]AFQSFRKMWPFFAM-OH (SMILES CSCC[C@H](NC(=O)[C@H](C)NC(=O)[C@H](Cc1ccccc1)NC(=O)[C@H](Cc1ccccc1)NC(=O)[C@@H]1CCCN1C(=O)[C@H](Cc1c[nH]c2ccccc12)NC(=O)[C@H](CCSC)NC(=O)[C@H](CCCCN)NC(=O)[C@H](CCCNC(=N)N)NC(=O)[C@H](Cc1ccccc1)NC(=O)[C@H](CO)NC(=O)[C@H](CCC(N)=O)NC(=O)[C@H](Cc1ccccc1)NC(=O)[C@H](C)NC(=O)[C@H](N)CCCNC(=N)N)C(=O)O) [peptide of SEQ ID NO: 46] | 2.7 |  |  |  | 90 | 95 | 12.5
RAFQSFRKMWPFFA[dM] [peptide of SEQ ID NO: 47] | 1.7 |  |  |  |  | 75 | 35
[dR]AFQSFRKMWPFFA[dM] [peptide of SEQ ID NO: 48] | 2.5 |  |  |  |  | 70 | 20
RAFQAFRKMWPFFAM (head-to-tail cyclic: linker L is C(=O) between the N-terminal amino group of residue 1 and the alpha carbon of residue 15) [cyclic peptide SEQ ID NO: 50] | 21.4 |  |  |  |  | 60 | 0.8
RDFQSFRKMWPFFAM [p60 (peptide of SEQ ID NO: 1)] | 1 | 59.7 | 116 | 54.5 |  |  | 38.3
RDFQAFRKMWPFFAM [peptide of SEQ ID NO: 19] | 1.1 | 89 | 160 | 74.7 |  |  | 
Ac-GRAFQAFRKMWAFFAM-NH2 [peptide of SEQ ID NO: 45] | 8 |  |  |  |  |  | 3
Ac-GR[dD]FQSFRKMWPFFAM-NH2 (SMILES CSCC[C@H](NC(=O)[C@H](C)NC(=O)[C@H](Cc1ccccc1)NC(=O)[C@H](Cc1ccccc1)NC(=O)[C@@H]1CCCN1C(=O)[C@H](Cc1c[nH]c2ccccc12)NC(=O)[C@H](CCSC)NC(=O)[C@H](CCCCN)NC(=O)[C@H](CCCNC(=N)N)NC(=O)[C@H](Cc1ccccc1)NC(=O)[C@H](CO)NC(=O)[C@H](CCC(N)=O)NC(=O)[C@H](Cc1ccccc1)NC(=O)[C@@H](CC(=O)O)NC(=O)[C@H](CCCNC(=N)N)NC(=O)CNC(C)=O)C(N)=O) [peptide of SEQ ID NO: 4] | 4.2 |  |  |  |  |  | 13.4
RDAQSFRKMWPFFAM [peptide of SEQ ID NO: 15] | 1.1 |  |  | 55.6 |  |  | 
Ac-GR[dA]FQSFRKMWPFFAM-NH2 (SMILES CSCC[C@H](NC(=O)[C@H](C)NC(=O)[C@H](Cc1ccccc1)NC(=O)[C@H](Cc1ccccc1)NC(=O)[C@@H]1CCCN1C(=O)[C@H](Cc1c[nH]c2ccccc12)NC(=O)[C@H](CCSC)NC(=O)[C@H](CCCCN)NC(=O)[C@H](CCCNC(=N)N)NC(=O)[C@H](Cc1ccccc1)NC(=O)[C@H](CO)NC(=O)[C@H](CCC(N)=O)NC(=O)[C@H](Cc1ccccc1)NC(=O)[C@@H](C)NC(=O)[C@H](CCCNC(=N)N)NC(=O)CNC(C)=O)C(N)=O) [peptide of SEQ ID NO: 14] | 3.6 |  |  |  | 90 | 80 | 12.5
Ac-GRDFQSFRKMWPFFAM-NH2 [peptide of SEQ ID NO: 2] | 2.4 |  |  |  | 80 |  | 
